In article doi:10.1101/334433 (bioRxiv, 2018):

Target: T1, GST-IRF4 (human, UniProt Q15306 1-451)
T1 sequence (looked up): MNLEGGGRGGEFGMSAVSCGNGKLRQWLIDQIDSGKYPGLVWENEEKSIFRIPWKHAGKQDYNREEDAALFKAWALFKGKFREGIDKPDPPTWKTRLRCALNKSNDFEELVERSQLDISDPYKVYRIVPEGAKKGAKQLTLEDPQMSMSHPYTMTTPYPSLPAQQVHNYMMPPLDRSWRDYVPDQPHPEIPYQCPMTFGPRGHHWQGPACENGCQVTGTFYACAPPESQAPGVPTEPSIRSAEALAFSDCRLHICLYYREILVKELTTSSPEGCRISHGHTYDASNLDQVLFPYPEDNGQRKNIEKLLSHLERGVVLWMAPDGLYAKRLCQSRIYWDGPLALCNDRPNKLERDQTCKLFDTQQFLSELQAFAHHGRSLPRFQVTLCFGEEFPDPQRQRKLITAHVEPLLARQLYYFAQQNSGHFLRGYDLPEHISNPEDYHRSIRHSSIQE
Assay: pull-down

B1: purified His-Peli1 (enzyme, human, UniProt Q96FA3 1-418, looked up)
chain: MFSPDQENHPSKAPVKYGELIVLGYNGSLPNGDRGRRKSRFALFKRPKANGVKPSTVHIACTPQAAKAISNKDQHSISYTLSRAQTVVVEYTHDSNTDMFQIGRSTESPIDFVVTDTVPGSQSNSDTQSVQSTISRFACRIICERNPPFTARIYAAGFDSSKNIFLGEKAAKWKTSDGQMDGLTTNGVLVMHPRNGFTEDSKPGIWREISVCGNVFSLRETRSAQQRGKMVEIETNQLQDGSLIDLCGATLLWRTAEGLSHTPTVKHLEALRQEINAARPQCPVGFNTLAFPSMKRKDVVDEKQPWVYLNCGHVHGYHNWGNKEERDGKDRECPMCRSVGPYVPLWLGCEAGFYVDAGPPTHAFSPCGHVCSEKTTAYWSQIPLPHGTHTFHAACPFCAHQLAGEQGYIRLIFQGPLD
B1: binds.
